IntAct's records for PubMed 12732850

B1: Humanin (Homo sapiens), Q8IVG9 (parent)
chain: MAPRGFSCLLLLTSEIDLPVKRRA

Variants of: B1
Settings: with bax_human BAX

effect of a mutation on the interaction	Variant
disrupting interaction strength	MAPRGFSPLLLLTSEIDLPVKRRA
